In publication PMC8816810:

Target: AMdnB (Anabaena sp. PCC 7120)
Experiment: ITC

## MPENRQEDLNAQAVPFFARFLEGQ [AMdnA_(1–24) peptide (truncated AMdnA LP)]
  Kd: 12.3 µM
